In the nanobody polyreactivity screen of Harvey et al. (2022):

Assay: yeast display, Sf9 membrane polyspecificity reagent, FACS + sequencing; frameworks hold sequencing errors
Outline: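 Nanobodies from a synthetic yeast display library (Saccharomyces cerevisiae BJ5465), induced 36–48 hours with galactose, were stained 1 hour at 4 °C with 10% biotinylated, detergent-solubilized Sf9 membrane reagent, enriched on streptavidin microbeads, then FACS-sorted. Anti-HA (expression) and streptavidin (reagent binding) fluorescence set low and high (top ~1%) gates. Polyreactivity labels come from the gate of origin. Genes were colony-PCR amplified, MiSeq 2 × 250 sequenced and filtered by CDR length.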

Sequence | polyreactivity (PSR sort gate)
QVQLVESGGGLVQAGGSLRLSCAASGSIYYNAMGWYRQAPGKERELVASISTGDSTDYADSVKGRFTISRDNAKNTVYLQMNSLKPEDTAVYYCAADTRLGYWDDYWGQGTQVTVSS | low polyreactivity
QVQLVESGGGLVQAGGSLRLSCAASGSTFSGNAMGWYRQAPGKEREFVAAIFSDGSTYYADSVKGRFTISRDNAKNTVYLQMNSLKPEDTAVYYCAAAWYEPATQTGYFEFDYWGQGTQVTVSS | low polyreactivity
QVQLVESGGGLVQAGGSLRLSCAASGSTFTSNAMGWYRQAPGKEREFVAAISVGGGITYYADSVKGRFTISRDNAKISVYLQMNSLKPEDTAVYYCAADGEYPHSEDFEYWGQGTQVTVSS | low polyreactivity
QVQLVESGGGLVQAGGSLRLSCAASGRTFLTNAMGWYRQAPGKERELVAAIRWSGTSTYYADSVKGRFTISRDNAKNTVYLQMNSLKPEDTAVYYCAARKVYGSKYGYWGQGTQVTVSS | high polyreactivity
QVQLVESGGGLVQAGGSLRLSCAASGSTFDYYAMGWYRPAPGKERELVAGINRDDGNTYYADSVKGRFTISRDNAKNTVYLQMNSLKPEDTAVYYCAADSSWQGMDYSGQGTQVTVSS | low polyreactivity
QVQLVESGGGLVQAGGSLRLSCAASGSTFYTNDMGWYRQAPGKERELVAAITSAGNTNYADSVKGRFTISRDNAKNTVYLQMNSLKPEDTAVYYYYYYQYDYWGQGTQVTVSS | low polyreactivity
QVQLVESGGGLVQAGGSLRLSCAASGSIFYDYALGWYRQAPGKERELVAAINSGDSTYYADSVKGRFTISRDNAKNTVYLQMNSLKPEDTAVYYCAATYFSPFIEYDYWGQGTQVTVSS | low polyreactivity
QVQLVESGGGLVQAGGSLRLSCAASGRIFLTKAMGWYRQAPGKERELVADISRGGSTYADSVKGRFTISRDNAKNTVYLQMNSLKPEDTAVYYCAADEYSPGDSRTRYDYWGQGTQVTVSS | low polyreactivity
QVQLVESGGGLVQAGGSLRLSCAASGSIFDPYGMGWYRQAPGKERELVAAISSSDGSTYYADSVKGRFTISRDNAKNTVYLQMNSLKPEDTAVYFCAAETYGTNSSNTVYRWKYDYWGQGTQVTVSS | low polyreactivity
QVQLVESGGGLVQAGGSLRISCAASGSIFGDNAMGWYRHAPGKERELVAAITFSGGSTHYADSVKGRFTISRDTAKNTVYLQMNSLKPEDTAVYYCAKRWRYSKHVNYYYWGQGTQVTVSS | high polyreactivity
QVQLVESGGGLVQAGGSLRLSCAASGRIFLIYAMGWYRQAPGKDRELVAAISGRGGGTTYYADSVKGRFTISRDNAKITVYLQMNSLKPEATAVYYCAARNGGHKYYYWGQGTQVTVSS | high polyreactivity
QVQLVESGGGLVQAGGSLRLSCAASGSIFYYYARGWYRQAPGKERELVAAITSGGRTKYADSVKGRFTISRDNAKNTVNLQMNSLKPEDTAVYYCNARNYGKYRTNDYWGQGTQVTVSS | high polyreactivity
IIQAGGSLRLSCAASGRTLSGYAMGWYRQAPGKERELIADITSGGSTYYADSVKGRFTISRDNAKNTVYLQMNSLKPEDTAVYYCAAERQIRSFWSSRTYEFGYWGQGTQVTVSS | low polyreactivity
QVQLVESGGGLVQAGGSLRISCAASAITFPRNAMGWYREAPGKERELVAAITSVGSTKYADSVKGRFTFSRDNAKNTVYLQMNSLKPEDTAVYYCATRGASAISNSVRWSYYYWGQGTQVTVSS | low polyreactivity
QVELVESGGGLVQAGGSLRLSCAASGYTFRFNAMGWYRQAPGKEREFVAAIDFGGAGTYYADSVKGRFTISRDNAKNTVYLQMNSLKPEDTAVYYCNARDGVTTEFDYWGQGTQVTVSS | low polyreactivity
QVQLVESGGGLVQAGGSLRLSCAASGLTFGNNAMGWYRQAPGKERELVAAISSDGTTYYADSVKGRFTISRDNAKNTVYLQMNSLKPEDTAVYYCNAAAEISSFDYDYWGQGTQVTVSS | low polyreactivity
QVQLVESGGGLVQAAGSLRLSCAASVGTFTPNVMGWSRKAPGKERELVAAIDDSGSRTYYADSVKGRFTISRVNAKNTVYLQMNSLKPEDTAVYYCAVYWYGTFPMYYWGQGTQVTVSS | low polyreactivity
QVQLVESGGGLVQAGGRLRLSCAASGGIFRRNAMGWYRPAPGKERELVAAISRSGGRTYYADSVKGRFTISRDNAKTSVYLQMNSLKPEDTAVYYCNADYGTRAGVDYWGQGTQVTVSS | low polyreactivity
QVQLVESGGGLVQAGGSLRLSCAASGRIFYYYAMGWYRQAPGKERELVAVISRGGRTKYADSVKGRFTISRDNAKNTVYLQMNILKPEDTAVYYCAAYPSYYGDSGLRYDYWGQGTQVTVSS | high polyreactivity
QVQLVESGGGLVQAGGRLRLSCAASGRIFGINVMGWYRQAPGKERELVARITGRGGRTYYADSVKGRFTISRDNAKNTVYLQMNSLKPEDTAVYYCAADASYEAYDYWGQGTQVTVSS | high polyreactivity
QVQLVESGGGLVQAGGSLRLSCAASGFTFRYYAMGWYRQAPGKERELVAAISWRGGRTYYADSVKGRFTISRDNAKNTVYIQMNSLKPEDTAVYYCAALRERQTRGNYWGQGTQVTVSS | high polyreactivity
QVQLVESGGGLVQAGGSLRLSSAASGSTFYSYAMRWYRQAPGKERELVAAINWDGVSTYYADSVKGRFSISRDNAMNTVYLQMNSLKPEDTAVYYCAADLFSGYRISGTFYYWGQGTQVTVSS | low polyreactivity

Sequence | polyreactivity (PSR sort gate)
QVQLVESGRGLVQAGGSLRLSCAASGSTFPPSAMGWYRQAPGKERELVAAIDVSGGTTFYADSVKGRFTISRDNAKNTVYLQMNSLKPEDTAVYYCAIGSVSARFEYWGQGTQVTVSS | low polyreactivity
QVQLVESGGGLVQAGGSLRLSCAASGSIFFYNTMGWYRQAPGKERELVAAISASGGRTYYADSVKGRFTISRDNAKNTVYLQMISLKPEDTAVYYCAVRVPYRGYTRYDYWGQGTQVTVSS | high polyreactivity
QVQLVESGGGLVQAGGSLRLSCAASGRTFYSNAMGWYRQAPGKETELVAAISNRGGSTYYADSLKGRFTISRDNAKNTVYLQMNSLKPEYTAVYYCARYPTKYGYWGQGTQVTVSS | high polyreactivity
QVQLVESGGGLVKAGGSLRLRCAASGSIFRYYVMGWYRQAPGKERELVAAISGGSTYYADSVKGRFTISRDNAKNTVYLQLNSLKPEDTAVYYSAARGKRRSGGENYAYGYWGQGTQVTVSS | high polyreactivity
QVQLVESGGGLVQAGGSLRLSCAASGRTSRVNAMGWYRQAPGKERELVATITKSGGSTFYADSVKGRFTISRDNPKNTVYLQMNILKPEDTAVYYCNAGGVRATKGYDYWGQGTQVTVSS | low polyreactivity
QVQLVESGGGLVQAGGSLRLSCAASASTTYYAMGWYRQAPGKERELVAAISFSGGSTFYADSVKGRFTISRDNAKNTVYLQMNCLKPEDTGVYYCATQEGPHKLDPRGYYWGQGTQVTVSS | low polyreactivity
QVQLVESGGGLVQAGGSLRLSCASSGRIFSVYTMGWYRQAPGKERELVAAISSGASTNYADSVKGRFTISRDNAMNTVYLQMKSLKPEDTAVYYCAAVSPRRYRYDYWGQGTQVTVSS | low polyreactivity
QVQLVESGGGLVQAGGSLRLSCAASGSTFWFYPMGRYRQAPGKERELVAVISNSGSTYYADSVKGRFTISRDNAKNTVYLQMNSLKPEDTAVYYCNKDGGGDSYWYDYWGQGTQVTVSS | low polyreactivity
QLQLVESGGGLVQAGGSLRLSCAASGRTFFKYVMGWYRQAPGKERELVAAISYRSGSTYYADSVKGRFTISRDNAKNTVYLQMNSLKPEDTAVYYCAKEPPPVKGDYWGQGTQVTVSS | low polyreactivity
QVQLVESGGGLVEAGGSLRLSCAASGSIFSYNAMGWYRQAPGKERELVAAITDGGDRTYYADSVKGRFTISRDNAKNTVYLLMNSLIPEATAVYYCAAELYSYREDYGAHFAYEYWGQGTQVTVSS | low polyreactivity
QVQLVESGGGLVQAGGSLRLSCAASGITLYWYAMGWYRQAPGKERELVAAISRRGGTTYYADSVKGRFTISRDNAKNTVYLQMNSLKPEDTAVYYCAKAPDTQTSWSRQEGNYWGQGTQVTVSS | low polyreactivity
QVQLVESGGGLVQAGGSLRLSCAASGRIFDLYTMGWYRQAPGKERELVAAIRWSDGSTYYADSVTGRFTISRDNAKNTVYLQMNSLKPEDTAVYYCAADTRTSYYNDDYDYWGQGTQVTVSS | low polyreactivity
QVQLVESGGGLVQAGGSLRLSCAASGGTFSYYAMGWYRQAPGKERELVAAISKRGGSTYYADSVKGRFTISRDNAKNTVYLQMNSLKPEETAVYYCARGYSWSVGYPRVQDMDYWGQGTQVTVSS | high polyreactivity
QVQLAESGGGLVQAGVSLRISCAASGSTFSVYAMGWYRQAPGKERELVATIRRGGSTYADSVKGRFTISRDNAKITVYLQMNRLKPEDTAVYYCASDAYVSYQPMDYWGQGTQVTVSS | high polyreactivity
QVQLVESGGGLVQAGGSLRLSCAASGLIFYYYAMGWYRQAPGKERELVAAITSDDRTYYADSVKGRFTISRDNAKNTFYLQMNSLKPEDTAVYYCAARYHGYLPQYRKYGYGYWGQGTQVTVSS | high polyreactivity
QVQLVESGGGLVQAGGSLRLSCAASGSTLVYNDMGWYRQAPGKEREFVAAIRSNDGSTYYADSVKGRFTISRDNAKNTVYLQMNSLKPEDTAVYYCNARNQVYKIYYSDYRRYDYWGQGTQVTVSS | low polyreactivity
QVQLVESGGGLVQAGGSLRLSCAASGSIFLWYTMGWYRQAPGKERELVAAISSSGGSTYYADSVKGRFTISRDNAKNTVYLQTNSLKPEDNAVYYCAAAKLFYYGRKYGKYDYWGQGTQVTVSS | high polyreactivity
QVQLVESGGGLVQAGGSLRLSCAASGSNFRVNAMGWYRQAPGKERELVAASSSGGSTHYADSVKGRFTISRDNAKNTFYLQMISLKPEDTAVYYCAVRYALGPYLWYYWGQGTQVTVSS | high polyreactivity
QVQLVESGGGLVQAGGSLRLSCAASGSILYISARGWYRQAPGKERELVASINSGASTNYADSVKGRFTISRDNAKNTVYLQMNSLKPEDTAVYYCAKSIVNPPHGFKDFDYWGQGTQVTLSS | low polyreactivity
QVQLVESGRGLVQAGGSLRLSCAASGFTFGYYAMGWYRQAPGKERELVAAITSSGGTTYYADSVKGRFTISRDNAKNTVYLQMNSLKPEDTAVYYCAAEAQYYVVDPYGYDYWGQGTQVTVSS | low polyreactivity
QVQLVESGGGLVQAGGSLSLSCAASGFNSSHYAMGWYRQAPGKERELVATISSGGSTYADSVKGRFTISRDNAKNTVYLQMNSLKPEDTAVYYCDKGVRYKQYHIMYYWGQGTQVTVSS | high polyreactivity
